Laboratory results from patent US20190145962A1 (TAO HEALTH LIFE PHARMA, published 2019).

target: T1, synthetic amylospheroids (synthetic ASPD) (UniProt P05067 672-713); assay: ASPD pre-incubated with peptide, imaging of ASPD bound to rat hippocampal neurons
T1 construct: Spherical Abeta assembly of about 10 nm, made in vitro; In SPR it was solid-phased on the chip; In the imaging assay it was pre-incubated with peptide and added to neurons
Description: A liquid mixture of peptide and synthetic ASPD was incubated at 4° C. for 15 minutes to pretreat the ASPD and this liquid mixture was added to primary cultured rat hippocampal neurons cultured in a 96-well plate.
After incubation at 37° C. for 15 minutes in a CO₂ incubator, the wells were washed with PBS. Then, 2% paraformaldehyde (50 μl/well) was added thereto for immobilization performed for 20 minutes at 37° C. and further 4% paraformaldehyde (50 μl/well) was added thereto for immobilization performed for 20 minutes at 37° C. After washing and blocking, a primary antibody solution containing anti-ASPD antibody (mASD3) and anti-MAP2 antibody (trade name: sc-20172, manufactured by SANTACRUZ) was added, which then was left overnight. After washing, a secondary antibody solution containing Alexa Fluoro (trademark) 568 anti-mouse antibody (trade name: A11031, manufactured by life technologies), Alexa Fluoro (trademark) 488 anti-rabbit antibody (trade name: A11034, manufactured by life technologies), and DAPI (trade name: D523, manufactured by Dojindo) was added and then fluorescence microscopic observation was performed.
Subsequently, steps 4 to 5 were performed as follows: From the microscopic observation data, a calibration curve as shown in FIG. 2 was drawn, an approximate curve was created within a range where linearity was maintained, and then ED₅₀ was calculated. Using, as an indicator, “titer” that is defined by the ratio of ED₅₀ of the ASPD treated with peptide to ED₅₀ of the ASPD alone, the ASPD-binding inhibitory ability of peptide was evaluated.

T1 sequence (P05067 672-713): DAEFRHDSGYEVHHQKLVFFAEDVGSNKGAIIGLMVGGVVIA

| Binder | ASPD-binding inhibitory ability (titer = ED50[ASPD+Peptide]/ED50[ASPD]) |
| --- | --- |
| HFDW (also called HFDW) [Peptide 18] | 1.5 |
| HFRW (also called HFRW) [Peptide 16] | 1.5 |
| HRNW (also called HRNW) [Peptide 02] | 1.5 |
| HVNW (also called HVNW) [Peptide 11] | 1.5 |
| HQNW (also called HQNW) [Peptide 07] | 1.5 |
| HFLW (also called HFLW) [Peptide 12] | 1.5 |
| HFWW (also called HFWW) [Peptide 15] | 1.5 |
| HFMW (also called HFMW) [Peptide 17] | 1.5 |
| HHNW (also called HHNW) [Peptide 05] | 1.5 |
| HTNW (also called HTNW) [Peptide 09] | 1.5 |
| HKNW (also called HKNW) [Peptide 03] | 1.5 |
| HYNW (also called HYNW) [Peptide 08] | 1.5 |
| HFIW (also called HFIW) [Peptide 14] | 1.5 |
| HFEW (also called HFEW) [Peptide 19] | 1.5 |
| HWNW (also called HWNW) [Peptide 06] | 1.5 |
| HFKW (also called HFKW) [Peptide 22] | 1.5 |
| HFVW (also called HFVW) [Peptide 21] | 1.5 |
| HFHW (also called HFHW) [Peptide 23] | 1.5 |
| HFYW (also called HFYW) [Peptide 24] | 1.5 |
| HANW (also called HANW) [Peptide 10] | 1.5 |
| HFGW (also called HFGW) [Peptide 13] | 1.5 |
| HDNW (also called HDNW) [Peptide 04] | 1.5 |
| HFAW (also called HFAW) [Peptide 20] | 1.5 |

target: T1, synthetic amylospheroids (synthetic …); assay: SPR, synthetic ASPD solid-phased on the chip, peptide as analyte
Description: Synthetic ASPD were solid-phased on a chip and each peptide shown in Table 3 below was allowed to flow as an analyte. Then the dissociation constant (KD) was determined by surface plasmon resonance (SPR).
Two peptides (HNNW (SEQ ID NO: 27) and HPNW (SEQ ID NO: 28)) that could not inhibit the binding of ASPD to neurons in the evaluation performed in section 1 above were used as negative controls.

| Binder | binding result |
| --- | --- |
| HNNW [HNNW (negative control peptide)] | no binding |
| HPNW [HPNW (negative control peptide)] | no binding |
